Results on eight molecules are retold here after patent publication US20090175873A1 (Scripps Research, published 2009).

Numbered stars: 1 amine (or outer) side, 2 acyl side, 3 side chain; on linkers, the order of the positions; unused ones are H or OH. Square brackets hold non-standard residues; d marks the D form. * marks the point of attachment. AzaAsn = aza-asparagine, NC(=O)CN(N[*:1])C(=O)[*:2]; (S,S)‑EPCOOEt = (S,S)-epoxide ethyl ester; CH:CH‑COOEt = CCOC(=O)/C=C/*; Suc = O=C(CCC(=O)[*:2])[*:1]; Cbz = O=C(OCc1ccccc1)*

In data set [1] the target is recombinant legumain (Homo sapiens (Human)) (UniProt Q99538). The data set can be described thus: cell-based or functional assay.
In another data set the target is T1, human legumain (human, UniProt Q99538 19-323, limits assumed).
T1 sequence: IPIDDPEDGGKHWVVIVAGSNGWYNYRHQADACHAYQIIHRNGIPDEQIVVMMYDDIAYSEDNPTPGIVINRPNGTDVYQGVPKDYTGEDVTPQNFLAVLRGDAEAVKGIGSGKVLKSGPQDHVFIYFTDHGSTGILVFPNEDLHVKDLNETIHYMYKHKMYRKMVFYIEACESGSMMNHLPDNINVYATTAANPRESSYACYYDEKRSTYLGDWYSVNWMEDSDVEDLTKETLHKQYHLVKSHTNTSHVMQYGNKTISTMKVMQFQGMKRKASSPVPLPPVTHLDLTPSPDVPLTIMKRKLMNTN
Kind of data set: cell-based or functional assay.

The target of another data set is T2, progelatinase A, P08253.
T2 chain: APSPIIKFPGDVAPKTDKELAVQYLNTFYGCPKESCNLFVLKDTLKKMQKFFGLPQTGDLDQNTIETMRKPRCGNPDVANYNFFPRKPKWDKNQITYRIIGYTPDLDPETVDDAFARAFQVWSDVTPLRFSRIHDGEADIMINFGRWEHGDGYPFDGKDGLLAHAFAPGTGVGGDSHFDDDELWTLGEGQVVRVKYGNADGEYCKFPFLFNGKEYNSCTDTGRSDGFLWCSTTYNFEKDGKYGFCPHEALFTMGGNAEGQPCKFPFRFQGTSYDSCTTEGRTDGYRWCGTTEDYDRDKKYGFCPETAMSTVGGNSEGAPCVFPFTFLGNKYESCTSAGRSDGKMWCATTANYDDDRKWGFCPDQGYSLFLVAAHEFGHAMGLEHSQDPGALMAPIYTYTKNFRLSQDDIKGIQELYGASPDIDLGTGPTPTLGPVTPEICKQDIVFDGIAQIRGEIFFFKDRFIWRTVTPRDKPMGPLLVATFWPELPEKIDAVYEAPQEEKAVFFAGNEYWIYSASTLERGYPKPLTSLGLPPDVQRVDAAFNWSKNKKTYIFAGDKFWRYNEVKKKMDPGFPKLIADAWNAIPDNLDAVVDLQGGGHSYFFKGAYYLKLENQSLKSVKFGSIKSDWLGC

Data set [2] concerns the target T3, αvβ3 integrin (added to the legumain activity assays), P06756.
T3 chain 1: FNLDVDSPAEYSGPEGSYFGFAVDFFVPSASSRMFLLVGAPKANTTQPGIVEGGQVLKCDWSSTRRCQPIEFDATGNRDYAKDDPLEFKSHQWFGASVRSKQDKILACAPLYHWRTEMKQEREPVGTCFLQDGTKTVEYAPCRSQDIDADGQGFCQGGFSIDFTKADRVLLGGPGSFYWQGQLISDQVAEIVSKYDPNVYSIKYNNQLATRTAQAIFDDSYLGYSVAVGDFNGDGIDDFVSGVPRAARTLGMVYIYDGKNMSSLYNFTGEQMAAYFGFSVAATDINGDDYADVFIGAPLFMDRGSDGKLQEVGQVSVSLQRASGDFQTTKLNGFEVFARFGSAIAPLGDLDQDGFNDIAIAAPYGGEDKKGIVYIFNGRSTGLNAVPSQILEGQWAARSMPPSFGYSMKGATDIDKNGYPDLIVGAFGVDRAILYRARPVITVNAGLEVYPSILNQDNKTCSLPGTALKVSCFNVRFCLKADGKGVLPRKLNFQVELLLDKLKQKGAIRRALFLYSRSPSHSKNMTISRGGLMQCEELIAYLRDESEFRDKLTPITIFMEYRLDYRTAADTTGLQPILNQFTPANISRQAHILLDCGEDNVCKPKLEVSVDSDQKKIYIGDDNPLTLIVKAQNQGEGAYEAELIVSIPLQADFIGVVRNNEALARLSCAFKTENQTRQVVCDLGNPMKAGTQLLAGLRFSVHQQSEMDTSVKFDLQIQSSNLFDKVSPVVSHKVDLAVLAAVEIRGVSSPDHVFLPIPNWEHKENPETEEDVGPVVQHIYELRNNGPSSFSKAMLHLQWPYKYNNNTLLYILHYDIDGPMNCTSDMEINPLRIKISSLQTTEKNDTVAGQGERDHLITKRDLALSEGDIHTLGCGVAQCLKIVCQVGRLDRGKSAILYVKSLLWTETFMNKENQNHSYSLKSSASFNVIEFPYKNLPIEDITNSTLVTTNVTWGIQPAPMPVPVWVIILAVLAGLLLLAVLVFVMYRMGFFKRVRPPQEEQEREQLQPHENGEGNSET
T3 chain 2: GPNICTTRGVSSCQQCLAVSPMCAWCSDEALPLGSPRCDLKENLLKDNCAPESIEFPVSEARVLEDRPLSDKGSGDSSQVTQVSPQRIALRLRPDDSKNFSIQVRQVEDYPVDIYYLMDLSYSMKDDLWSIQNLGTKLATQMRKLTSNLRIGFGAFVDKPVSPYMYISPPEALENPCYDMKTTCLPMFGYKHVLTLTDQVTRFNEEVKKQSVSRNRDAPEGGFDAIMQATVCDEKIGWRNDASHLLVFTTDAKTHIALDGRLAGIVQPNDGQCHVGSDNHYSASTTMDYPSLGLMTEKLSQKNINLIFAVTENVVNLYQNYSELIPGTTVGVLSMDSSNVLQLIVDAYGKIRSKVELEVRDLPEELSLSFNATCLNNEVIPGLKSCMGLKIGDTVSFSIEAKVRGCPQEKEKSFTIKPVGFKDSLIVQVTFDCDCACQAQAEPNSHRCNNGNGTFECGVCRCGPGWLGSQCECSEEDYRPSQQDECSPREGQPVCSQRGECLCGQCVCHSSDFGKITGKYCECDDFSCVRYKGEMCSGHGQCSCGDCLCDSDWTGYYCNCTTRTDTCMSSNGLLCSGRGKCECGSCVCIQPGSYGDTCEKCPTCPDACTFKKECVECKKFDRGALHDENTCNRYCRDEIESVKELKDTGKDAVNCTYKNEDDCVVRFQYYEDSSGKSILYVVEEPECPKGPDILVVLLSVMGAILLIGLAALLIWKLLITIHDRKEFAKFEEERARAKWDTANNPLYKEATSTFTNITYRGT

A further data set concerns the target T4, caspase 9, P55211.
T4 chain: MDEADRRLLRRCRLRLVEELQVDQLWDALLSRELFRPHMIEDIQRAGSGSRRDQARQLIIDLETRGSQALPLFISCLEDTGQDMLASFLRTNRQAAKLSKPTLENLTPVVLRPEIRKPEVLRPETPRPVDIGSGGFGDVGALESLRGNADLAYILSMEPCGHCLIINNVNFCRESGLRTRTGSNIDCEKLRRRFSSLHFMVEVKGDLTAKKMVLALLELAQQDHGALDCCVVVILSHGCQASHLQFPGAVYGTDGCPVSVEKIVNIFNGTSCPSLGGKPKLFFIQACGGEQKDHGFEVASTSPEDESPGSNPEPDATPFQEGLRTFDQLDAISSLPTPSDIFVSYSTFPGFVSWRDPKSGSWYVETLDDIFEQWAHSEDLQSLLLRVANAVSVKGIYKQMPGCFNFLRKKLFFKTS

The target of the next data set is T5, recombinant legumain (Homo sapiens (Human), UniProt Q99538 19-323, limits assumed).
T5 sequence: T1 sequence
The data set can be described thus: cell-based or functional assay.

Regarding “αvβ3 integrin (added to the legumain activity assays) (from UniProt P06756 31-1048; P05106 27-788) (receptor)”, in data set [1], the pH of peak legumain activity in the legumain:αvβ3 complex was found to be 6 pH.

Consider cystatin, for which the EC50 (µM) of LEG-3 for 50% cell death on Legumain+ 293 cells in the presence of cystatin in the data set with human legumain was found to be 64.4 µM.

B1: LEG-3 (succinyl-Ala-Ala-Asn-Leu-doxorubicin) (peptide)
peptide: Suc-AANL-doxorubicin
modifications: not fully specified (residue 1); printed as succinyl-Ala-Ala-Asn-Leu-doxorubicin
With B1, the “EC50 (µM), amount required for 50% cell death, Legumain+ 293 cells” value with human legumain is 3.2 µM.

B2: recombinant legumain (protein)
chain: T1 sequence
Consider B2, for which, in the data set with progelatinase A, P08253, the “zymogram: cleavage of MMP2 by legumain and legumain:αvβ3” value is “legumain not only removes the pro-MMP2 propeptide but also cleaves MMP2 between its proteolytic domain and its integrin binding hemopexin domain”. Also, the “legumain amidolytic activity (hydrolysis of a substrate to a fluorescent product)” value in data set [2] is “binding of legumain to αvβ3 integrin can increase legumain activity nearly 100 fold”. The “cathepsin B activity toward small peptidyl substrates” value with cathepsin B, P07858 is reported as “cathepsin B activity toward small peptidyl substrates is not affected”. Besides, in the data set with caspase 9, P55211, the “cleavage of caspase 9 and loss of caspase 9 activity” value was “legumain efficiently inactivates caspase 9 and depletes the cell of pro-caspase 9”.

For the molecule Cbz-Ala-Ala-[AzaAsn]-{CH:CH‑COOEt} (SMILES CCOC(=O)/C=C/C(=O)N(CC(N)=O)NC(=O)[C@H](C)NC(=O)[C@H](C)NC(=O)OCc1ccccc1) [AEPI-2 (Cbz-Ala-Ala-AzaAsn-CH=CH-COOEt)], the “IC50, amidolytic activity assay of recombinant legumain with fluorescent substrate” value (“IC50, amidolytic activity assay” below) with recombinant legumain is approximately 21 nM.

Regarding Cbz-Ala-Ala-[AzaAsn]-{CH:CH‑COOBzl} [AEPI-3 (Cbz-Ala-Ala-AzaAsn-CH=CH-COOBzl)], the “IC50, amidolytic activity assay” value in the data set with recombinant legumain amounted to 34 nM.

Turning to Cbz-Ala-Ala-[AzaAsn]-{CH:CH‑CON(CH3)Bzl} [AEPI-4 (Cbz-Ala-Ala-AzaAsn-CH=CH-CON(CH3)Bzl)], the “IC50, amidolytic activity assay” value in the data set with recombinant legumain is 158 nM.

Take Cbz-Ala-Ala-[AzaAsn]-{(S,S)‑EPCOOEt} [AEPI-1 (Cbz-Ala-Ala-AzaAsn-(S,S)-EPCOOEt)]: the “IC50, amidolytic activity assay” value in the data set with recombinant legumain was approximately 20 nM.
